The source of these data is PMC10626209.

The Kd is the concentration at which binding is half-saturated. Low values mean a tighter complex, high ones a looser complex.

In experiment [1] the target is GFP-tagged SHROOM2 ASD2 domain (mouse protein 1,178–1,488 aa) (mouse). Put plainly: SPR.
Experiment [2] addresses preformed SHROOM2:ROCK1 complex (mouse | human) (UniProt Q13464). Put plainly: SPR. A general note: SPR reads the build-up and loss of mass on a sensor chip optically.

As to “GST-tagged ROCK1 SBD domain (834–913 aa) (from UniProt Q13464 834-913) (domain or fragment)”, in experiment [1], the Kd turned out to be 1000 nM.
In experiment [1], “GST-tagged SCRIB C-terminal fragment (1,478–1,630) (from UniProt Q14160 1478-1630) (domain or fragment)” displayed a Kd of 960 nM. For the same substance, the fold higher affinity than for the single domain (printed: ROCK1 alone) in experiment [2] worked out at 5 fold.
